Data as given in patent publication US20140221623A1 (Ablynx, published 2014).
Residue numbers refer to the chain shown, from its start. Where “and” joins values, the source holds several entries; their conditions need not be identical. Equal values may be shown once.

T1: IL6-R on U266 cells (human, UniProt P08887 20-468)
T1 sequence (looked up): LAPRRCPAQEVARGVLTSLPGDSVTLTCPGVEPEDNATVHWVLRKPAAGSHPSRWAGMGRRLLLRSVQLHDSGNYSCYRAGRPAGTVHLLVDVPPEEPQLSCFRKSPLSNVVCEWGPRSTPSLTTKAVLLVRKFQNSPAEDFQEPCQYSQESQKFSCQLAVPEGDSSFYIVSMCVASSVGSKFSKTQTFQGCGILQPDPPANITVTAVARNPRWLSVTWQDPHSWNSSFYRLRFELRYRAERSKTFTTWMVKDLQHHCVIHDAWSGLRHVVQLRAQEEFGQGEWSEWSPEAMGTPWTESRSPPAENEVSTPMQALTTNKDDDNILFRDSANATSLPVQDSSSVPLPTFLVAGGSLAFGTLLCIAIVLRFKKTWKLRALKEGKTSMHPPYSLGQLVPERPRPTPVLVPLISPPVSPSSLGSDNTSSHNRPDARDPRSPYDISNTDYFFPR

T2: Human soluble IL6-R (human, UniProt P08887 20-358)
T2 construct: Bought soluble receptor; biotinylated in some Alphascreen assays; also called sIL6-R; hIL-6R
T2 sequence (looked up): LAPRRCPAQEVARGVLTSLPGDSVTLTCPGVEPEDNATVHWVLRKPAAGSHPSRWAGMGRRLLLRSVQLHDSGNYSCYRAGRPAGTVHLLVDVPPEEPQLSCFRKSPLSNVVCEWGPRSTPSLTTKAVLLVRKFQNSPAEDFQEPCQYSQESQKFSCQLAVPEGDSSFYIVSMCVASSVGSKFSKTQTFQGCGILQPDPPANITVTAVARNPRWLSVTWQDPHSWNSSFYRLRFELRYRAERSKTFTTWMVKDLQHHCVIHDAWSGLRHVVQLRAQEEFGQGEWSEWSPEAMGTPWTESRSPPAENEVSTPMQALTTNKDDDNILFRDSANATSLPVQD

B1: IL6R13 (VHH)
VHH: EVQLVESGGGLVQPGGSLRLSCAASGFTFDDYGMSWVRQAPGRATEWVSAISWNGNNTYYTESMKGRFTISRDNAKNTVYLQMNSLKPEDTAVYYCVKGSTAIVGVPPTYPDEYDYWGQGTQVTVSS
notes: also called PMP35H4; PMP 35 H4
B2: IL6R14 (VHH)
VHH: EVQLVESGGGLVQPGGSLRLSCAASGFSLDYYAIGWFRQAPGKEREGVSCMDSSSGTTSTYYSDSVKGRFTISRDDAKNTVYLQMNSLKPEDTAVYYCAADGHLNWGQRYVPCSQISWRGWNDYWGQGTQVTVSS
notes: also called PMP40H5; PMP 40 H5
B3: IL6R04 (VHH)
VHH: EVQLVESGGGLVQAGGSLRLSCAASGFTFDDYDIGWFRQAPGKEREGVSGISSSDGNTYYADSVKGRFTISSDNAKNTVYLQMNSLKPEDTAVYYCAAEPPDSSWYLDGSPEFFKYWGQGTQVTVSS
notes: also called PMP32C9; PMP 32 C9
B4: IL6R03 (VHH)
VHH: EVQLVESGGGLVQAGGSLRLSCAASGSIFKVNAMGWYRQAPGKQRELVAGIISGGSTNYADSVKGRLTISRDNAKNTVYLQMNSLKPEDTAVYYCSFVTTNSDYDLGRDYWGQGTQVTVSS
notes: also called PMP31A4; PMP 31 A4
B5: IL6R09 (VHH)
VHH: EVQLVESGGGLVQAGGSLRLSCAASGRTSSSYDMTWYRQVPGKEREFVAVISWSGGSTYYADSVKGRFTISRDNAKNTVYLQMNSLKPEDTAIYYCNAYTGGGDDYWGQGTQVTVSS
notes: also called PMP34G9; PMP 34 G9
B6: IL6R06 (VHH)
VHH: EVQLVESGGGLVQAGGSLRLSCAASGNIFDDNTMGWTWNRQPPGKQRELVAIIATDGSTNYADSVKGRFTISRDNAKNTVYLQMNSLKPEDTAVYYCNLFSLRLGRDYWGQGTQVTVSS
notes: also called PMP32E2; PMP 32 E2
B7: IL6R88 (VHH)
VHH: B1 VHH with R43K, A44G, V79L, K87R, Q122L
notes: Humanized variant of IL6R13

These molecules were tested against T1, IL6-R on U266 cells (assay: cell-based or functional assay).

Molecule	IC50 (+1% HSA), TF-1 proliferation	IC50 (w/o HSA), TF-1 proliferation	IC50, XG-1 proliferation
MAb BR-6 (antibody)	0.088	0.042	0.064 nM
MAb BN-12 (antibody)			0.272 nM

The molecules below were run against T2, Human soluble IL6-R (assay: SPR (Biacore), off-rate).

Molecule	koff
B1	0.000178 s⁻¹
B2	0.000114 s⁻¹
B3	0.00015 s⁻¹
B4	0.0016 s⁻¹
B5	0.00139 s⁻¹
B6	0.000886 s⁻¹

Target: T1, IL6-R on U266 cells
Assay: cell-based or functional assay
Remark: another data set of the same source

Molecule	IC50, XG-1 proliferation
B1	1.4 nM
B2	0.603 nM
B3	0.089 nM
B4	16.2 nM
B5	2.75 nM
B6	42 nM

What follows are molecules tested against T2, Human soluble IL6-R (assay: SPR (Biacore 3000), IL6-R on CM5 chip; row without label, read as kd).

Molecule	koff
B7	0.000213 s⁻¹

Target: T1, IL6-R on U266 cells
Assay: cell-based or functional assay
Remark: another data set of the same source

Molecule	IC50, XG-1 proliferation with 1 mg/mL human serum albumin
B1	1.32 nM
B2	0.751 nM
B3	0.099 nM
B4	17.5 nM
B5	2.98 nM

These molecules were tested against T2, Human soluble IL6-R (assay: Alphascreen, 100 nM Nanobody; competitor Reference-Fab on beads).

Molecule	% binding retained in competition with Reference-Fab
B1	25%
B2	96%
B3	50%
B4	5%
B5	62%
B6	36%

Each molecule was assayed against T2, Human soluble IL6-R (assay: SPR (Biacore 3000), IL6-R on CM5 chip).

Molecule	Kd	koff	kon
B1	0.53 nM and 0.79 nM	0.000121 s⁻¹ and 0.000109 s⁻¹ and 0.000178 s⁻¹	231000 M⁻¹ s⁻¹ and 137000 M⁻¹ s⁻¹
B2	0.25 nM	0.0001 s⁻¹ and 0.000114 s⁻¹	402000 M⁻¹ s⁻¹
B3	0.26 nM	9.42e-05 s⁻¹ and 0.00015 s⁻¹	365000 M⁻¹ s⁻¹
B4	3.03 nM	0.00147 s⁻¹ and 0.0016 s⁻¹	484000 M⁻¹ s⁻¹
B5	2.01 nM and 1.17 nM	0.0013 s⁻¹ and 0.00139 s⁻¹ and 0.00129 s⁻¹	641000 M⁻¹ s⁻¹ and 1.11e+06 M⁻¹ s⁻¹
B6	7.1 nM		1.07e+06 M⁻¹ s⁻¹

Target: T2, Human soluble IL6-R
Assay: SPR (Biacore 3000), IL6-R on CM5 chip
Remark: another data set of the same source

Molecule	Kd	koff	kon
B7	0.9 nM	0.00031 s⁻¹	230000 M⁻¹ s⁻¹

Target: T1, IL6-R on U266 cells
Assay: cell-based or functional assay
Remark: another data set of the same source

Molecule	IC50, TF-1 proliferation
B1	7.2 nM
B2	1.75 nM
B3	0.545 nM
B4	28.1 nM
B5	10 nM
B6	77.2 nM

Target: T2, Human soluble IL6-R
Assay: SPR (Biacore 3000), IL6-R on CM5 chip
Remark: another data set of the same source

Molecule	Kd	koff	kon
B3	0.2 nM	0.000112 s⁻¹	536000 M⁻¹ s⁻¹
